# Results reported in patent US20170368150A1, “METHODS OF TREATING PULMONARY SARCOIDOSIS” (GOTHAM BIOPHARMACEUTICALS, INC., priority 2014, published 2017).
# B1: dornase alfa (protein, listed as Homo sapiens)
# chain: LKIAAFNIQTFGETKMSNATLVSYIVQILSRYDIALVQEVRDSHLTAVGKLLDNLNQDAPDTYHYVVSEPLGRNSYKERYLFVYRPDQVSAVDSYYYDDGCEPCGNDTFNREPAIVRFFSRFTEVREFAIVPLHAAPGDAVAEIDALYDVYLDVQEKWGLEDVMLMGDFNAGCSYVRPSQWSSIRLWTSPTFQWLIPDSADTTATPTHCAYDRIVVAGMLLRGAVVPDSALPFNFQAAYGLSDQLAQAISDHYPVEVMLK
# What was measured:
# [1] = tested on: patient with chronic pulmonary sarcoidosis; assay: n=1 long-term clinical treatment of a chronic pulmonary sarcoidosis patient with PULMOZYME; assay type: in vivo
# Description: At times, the patient was bedridden, dyspneic, and could not climb stairs or walk more than 10 feet. Steroids had been prescribed by pulmonary specialists; however the side effects of steroid therapy (diabetes, weight gain, memory loss, mental confusion, crippling joint pain) were intolerable. The patient's pulmonary sarcoidosis was deemed ultimately refractory to steroid therapy, which was discontinued, leaving essentially no therapeutic options for this patient.
# PULMOZYME® was prescribed to the patient by a licensed medical practitioner to initiate treatment.
# The extended clinical timeline described above allowed for a distinction between remission and stabilization of the disease to be made. […] This was done on an annual basis for the patient described above for the typical “survival window” (8-14 years for patients with progressive, chronic disease).
# The clinical timeline for treatment of the patient described above with PULMOZYME® is represented diagrammatically in FIG. 3 during pretreatment and for the entire treatment interval.
# bronchiectasis patients = settings: large clinical trial; cited from earlier work
# [2] = more than 10 years of treatment
molecule,measurement,setting,value
B1,"pulmonary disease symptoms (dyspnea, inspissated secretions) on discontinuation of therapy","[1]; annual 2-week discontinuation, resolved upon resumption (2.5 mg qd 4x weekly)",worsened
same,arterial O2 saturation (finger pulse oximetry),"[1]; at present, on room air",98%
same,"Arterial oxygenation via pulse oximetry, SaO2","[1]; currently measured on room air, low of 70% in pre-treatment interval",99%
same,Chest physical therapy with postural drainage,[1]; during PULMOZYME therapy,none required
same,General quality of life,[1]; during PULMOZYME therapy,vastly improved
same,Rib fractures and abdominal hernias,[1]; during PULMOZYME therapy,none
same,Granuloma formation/expectoration,[1]; during treatment,occasional
same,sarcoid skin involvement,[1]; during treatment,unchanged
same,Remission of disease,[1]; judged by annual 14-day discontinuation,not evident
same,Emergency room visits and hospitalizations relating to pulmonary sarcoidosis,[1]; [2],none
same,Pulmonary exacerbations (pneumonia),[1]; [2],not been a single pulmonary exacerbation and none
same,routine chest x-rays during treatment,[1]; scarring not progressed to more severe disease,improvement
same,"Blood chemistry, liver and kidney function during treatment",[1]; single patient,normal
same,Exercise tolerance during treatment,[1]; single patient,unlimited
same,"Coughing, wheezing, dyspnea","[1]; single patient, continued therapy 3-4 days/week",none
same,Adverse events / side effects relating to PULMOZYME,"[1]; single patient, long-term treatment (more than 10 years; over 12 years)",complete absence of side effects and without side effects or incident and none
same,benefit of treatment in bronchiectasis,bronchiectasis patients,failed to demonstrate any benefit
same,safety of treatment in bronchiectasis,bronchiectasis patients,potentially harmful
